The results in this text go back to PMC3681696 (Molecular Biology of the Cell, 2013).

The assay concerns the target purified muscle actin filaments (UniProt P68135 1-377).

The Kd is the equilibrium constant for the complex coming apart.

B1: recombinant Rng2p calponin homology domain (domain or fragment)
chain: MDVNVGLSRLQSQAGAPVGTKGSNTRLAAKQRETLQAYDYLCRVDEAKKWIEECLGTDLGPTSTFEQSLRNGVVLALLVQKFQPDKLIKIFYSNELQFRHSDNINKFLDFIHGIGLPEIFHFELTDIYEGKNLPKVIYCIHALSYFLSMQDLAPPLIKSDENLSFTDEDVSIIVRRLRQSNVILPNFKAL
As to B1, the Kd was approximately 20 µM.
